This note sets out measurements from paper doi:10.1101/154351 (bioRxiv, 2017).

This assay addresses TRC35 (residues 23 to 305) (human, UniProt Q7L5D6 23-305). Put plainly: crystal structure.

Chain of TRC35 (residues 23 to 305) (Q7L5D6 23-305): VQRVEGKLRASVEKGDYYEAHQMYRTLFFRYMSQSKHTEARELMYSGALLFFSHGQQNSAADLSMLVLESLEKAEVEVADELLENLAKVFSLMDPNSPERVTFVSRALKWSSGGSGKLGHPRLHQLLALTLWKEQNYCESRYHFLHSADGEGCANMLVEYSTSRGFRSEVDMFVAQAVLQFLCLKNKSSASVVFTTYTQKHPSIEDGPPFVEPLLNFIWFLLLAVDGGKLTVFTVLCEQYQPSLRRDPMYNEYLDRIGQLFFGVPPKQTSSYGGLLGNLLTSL

B1: Bag6 minimal TRC35-binding domain containing the NLS (residues 1000-1054) (domain or fragment)
chain: ETEPWAAAVPPEWVPIIQQDIQSQRKVKPQPPLSDAYLSGMPAKRRKTMQGEGPQ
In the case of B1, the binding result was “binds”.
